In publication PMC11157483:

Molecular target: Aplysia californica acetylcholine binding protein (Aplysia californica)
Assay: cross-linking

stoichiometry N: 5
Substance: Aplysia californica acetylcholine binding protein (natural protein)
